For test [1], the target named is HA on intact H3N2 A/Aichi/2/1968 (X31) virions (Influenza A virus H3N2 A/Aichi/2/1968 …, UniProt P03437, strain). Briefly: ELISA.
A further test concerns the target representative H4 HA (Influenza A virus H4, strain not named …, UniProt M1UPL4, strain). Briefly: ELISA. A general note: In an ELISA, binding on a coated surface is turned into a signal by an enzyme label.

Here are results for one molecule from PMC6748655 (Cell host & microbe, 2019).

B1: FL-1066 IgG (human IgG1) (antibody, V domains shown)
VH: DVKLVESGEGLVKPGGSLKLSCAASGFTFSGYDMSWVRQTPEKRLEWVAYISSGGDYIYYADTVKGRFTISRDNARNTLYLQMSSLKSEDTAMYYCTRDSDYYGSRVWFAYWGQGTLVTVSG
VL: QAVVTQESALTTSPGETVTLTCRSSTGAVTTSNYANWVQEKPDHLFTGLIGGTNNRAPGVPARFSGSLIGDKAALTITGAQTEDEAIYFCALWFSNHWVFGGGTKLTVL
Regarding B1, the binding result (in test [1]; with representative H4 HA) was “binds” throughout.
